± gives the uncertainty stated by the source.
Test: protein stability index of a GFP-peptide fusion (yeast GPS) (PSI 1-4); higher = more stable; sorted into four equal gates, so the index is relative within each strain
How it was run: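 Plasmids in a pooled yeast library fused tiled 17-residue yeast protein peptides downstream of GFP and also expressed Cherry. Mid-log cultures grown without leucine were sorted into four equal gates by GFP/Cherry fluorescence ratio. Each gate's plasmids were PCR-amplified and Illumina-sequenced, and reads were matched to strains by barcodes. The protein stability index is derived by multiplying each gate's read frequency by its gate number and summing the results.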

Sequence	protein stability index (doa10∆)	protein stability index (pdr5∆)	protein stability index (san1∆)	protein stability index (ubr1∆)
KGVYLILSEILCQINKC [YML103C/NUP188]	1.86 ± 0.055	1.56 ± 0.047	2.23 ± 0.075	1.88 ± 0.032
KHEDFVEGISEVQARKS [RPT5]	3.7 ± 0.24			3.41 ± 0.2
KHGAKKVAKRTKIKPFI [RPL27A]	2.91 ± 0.081	2.97 ± 0.082	2.95 ± 0.059	3.24 ± 0.035
KHISASIDNDFSEEKAE [YAR002W/NUP60]	3.04 ± 0.082	3.02 ± 0.065	3.23 ± 0.066	2.97 ± 0.059
KHITVRLTAKRLIEHDP [SRP14]	2.35 ± 0.057	2.52 ± 0.044	2.51 ± 0.064	2.65 ± 0.035
KHYLEDKLKVYKQAMNE [SNF5]	3.19 ± 0.093	3.18 ± 0.12	3.1 ± 0.1	3.08 ± 0.067
KIEGCISQVSSIHAIGS [RPB7]	1.9 ± 0.11	2.48 ± 0.16	2.11 ± 0.1	2.17 ± 0.15
KIGEEDYGEEIKSGVAK [MTW1]		2.93 ± 0.14		3.31 ± 0.12
KIHLYEKKLEDYCRILS [YGL172W/NUP49]	1.54 ± 0.11	2.34 ± 0.12	2.3 ± 0.13	1.78 ± 0.19
KIIDNPKSFLKKDQSVL [YMR129W/POM152]	3.06 ± 0.083	3.34 ± 0.098	3.07 ± 0.071	3.2 ± 0.095
KIKFDESSKLMTVTKVS [BRR2]	1.75 ± 0.099	1.36 ± 0.078	1.5 ± 0.2	1.35 ± 0.05
KIPDTYTANTSAQSIAS [YAR002W/NUP60]	1.99 ± 0.049	2.13 ± 0.056	2.07 ± 0.059	2.56 ± 0.034
KIPEREEKSNEVKTPKI [SIR4]		3.24 ± 0.21	3.46 ± 0.21	3.44 ± 0.15
KIQFHIHFADVAHITTK [RGR1]	2.88 ± 0.092	2.95 ± 0.087	2.83 ± 0.07	2.83 ± 0.058
KISNSKLLSLLRSKTSA [SIR4]	2.19 ± 0.058	2.45 ± 0.044	2.3 ± 0.08	2.29 ± 0.055
KIVVVRAEALNISGEFF [RPL16B]	2.51 ± 0.12	2.79 ± 0.12	2.56 ± 0.14	3 ± 0.089
KKEANLFPEQQNKEIKA [RPL6A]	3.38 ± 0.12	3.43 ± 0.088	3.21 ± 0.076	3.3 ± 0.093
KKEEELGVKSRLLEKSE [SNF2]		3.01 ± 0.14	3.06 ± 0.2	3.04 ± 0.29
KKFLRVRIFTKIESEDD [SRB4]	1.46 ± 0.092	1.26 ± 0.089	1.16 ± 0.13	1.11 ± 0.083
KKHLKRLAAPHHWLLDK [RPS4A]	2.78 ± 0.14	2.58 ± 0.078	3.18 ± 0.08	3.01 ± 0.072
KKICNHPFVFEEVEDQI [SNF2]	3.17 ± 0.064	2.89 ± 0.055	2.94 ± 0.06	2.86 ± 0.045
KKIKGKSIQDIVGLATL [SRP21]	3.12 ± 0.039	3.22 ± 0.035	3.177 ± 0.026	3.116 ± 0.031
KKIREIYRYDEMSNKVL [BRR2]	2.92 ± 0.097	3.06 ± 0.13	2.62 ± 0.086	3.08 ± 0.045
KKITLQLLDTSNQRFKD [SIN4]	3.02 ± 0.059	3.18 ± 0.067	2.91 ± 0.048	2.88 ± 0.039
KKKRFEIKKWTAVAFWS [HRT1]	1.97 ± 0.18	1.58 ± 0.12	1.55 ± 0.26	2.27 ± 0.1
KKLDDKPSLVDVHLLES [RPN6]	1.1 ± 0.12	1.29 ± 0.14		

Sequence	protein stability index (doa10∆)	protein stability index (pdr5∆)	protein stability index (san1∆)	protein stability index (ubr1∆)
KKLPRKTHRGLRKVACI [RPL3]	1.61 ± 0.062	3.5 ± 0.098	2.65 ± 0.064	3.23 ± 0.058
KKLVWPLHLIFAQPVAD [SSN2]	1.88 ± 0.075	1.39 ± 0.073	1.26 ± 0.11	1.17 ± 0.062
KKMMNTLVHTRVKIANT [SSN2]	2.69 ± 0.066	2.35 ± 0.05	2.67 ± 0.041	2.78 ± 0.033
KKNKRALPNIENDIIKL [BRR2]	3.09 ± 0.054	3.36 ± 0.062	3.23 ± 0.04	3.34 ± 0.037
KKNSSRPMPPIRGPKRR [SMD3]	2.23 ± 0.043	1.86 ± 0.037	2.14 ± 0.055	2.81 ± 0.036
KKNVWRSINNLIQEHDS [BRN1]	3.16 ± 0.1	2.75 ± 0.075	2.63 ± 0.052	2.57 ± 0.041
KKRKIHNGREGSIEEPE [MCD1]	3.26 ± 0.066	3.24 ± 0.06	3.17 ± 0.051	3.27 ± 0.042
KKRLMDIDDELNELETL [SMC2]	3.05 ± 0.058	3.17 ± 0.067	3 ± 0.034	3.37 ± 0.035
KKSVNKLDKQINMADRS [POP6]	2.73 ± 0.062	2.94 ± 0.08	2.63 ± 0.079	2.83 ± 0.054
KKVVIVKPHDEGSKSHP [RPL27A]	2.87 ± 0.081	2.86 ± 0.066	2.82 ± 0.093	3.04 ± 0.057
KLALGIALEGYRLDIIE [RPN2]	2.51 ± 0.15	1.77 ± 0.11		2.19 ± 0.083
KLEPKEIVRDILHTKES [SIR4]	2.92 ± 0.1	3.1 ± 0.14	2.5 ± 0.18	3.04 ± 0.086
KLKQLLDESSEQKNTAK [YIL149C/MLP2]	3.02 ± 0.11	3.22 ± 0.11	2.6 ± 0.17	2.99 ± 0.065
KLLFQELMAMNITPRLY [RPB2]	1.27 ± 0.1	1.39 ± 0.066	1.24 ± 0.13	1.43 ± 0.048
KLLIQIDELSNGQRSNS [SMC1]	2.42 ± 0.16	2.59 ± 0.11	3.14 ± 0.1	3.11 ± 0.16
KLLQLAGVEDVYTQSNG [RPS2]	1.56 ± 0.066	2.64 ± 0.13	3.19 ± 0.13	3.13 ± 0.086
KLQFETDRLSTTQRRYE [SMC1]	3.13 ± 0.094	3.3 ± 0.058	3.12 ± 0.086	3.12 ± 0.083
KLQSQSLHTKNVFGTLQ [YLR018C/POM34]	2.87 ± 0.12	2.82 ± 0.12	2.29 ± 0.26	2.94 ± 0.11
KLSISNAASQQPTPRSA [GAL11]	2.57 ± 0.083	2.61 ± 0.081	2.73 ± 0.058	2.91 ± 0.049
KLSKILPRYQELTKEEA [SMC3]	3.16 ± 0.11	3.34 ± 0.094	3.34 ± 0.086	3.35 ± 0.1
KLTDEQSSLDVAGLEDK [SIR3]	2.68 ± 0.083	2.85 ± 0.13	2.75 ± 0.083	3.1 ± 0.062
KLTSEETVFNYRLMIKR [GRR1]	3.02 ± 0.12	2.96 ± 0.12	2.56 ± 0.12	2.82 ± 0.095
KLVEIIWNDVVYGEGTS [YJL039C/NUP192]	3.46 ± 0.11	3.26 ± 0.11	3.39 ± 0.098	3.35 ± 0.058
KLVLNISVGESGDRLTR [RPL11A]			2.6 ± 0.2	1.08 ± 0.14
KLWFQLSESLTKFFDDA [RPN9]	3.02 ± 0.083	3.24 ± 0.099	3.02 ± 0.066	3.17 ± 0.097
KLYQTEPSGIYSSWSAQ [PRE6]	2.63 ± 0.084	2.15 ± 0.11	2.87 ± 0.11	1.46 ± 0.054

— the supplement of paper PMC9732359
